# Reference: patent US20210388087A1
# Molecular target: Human CD137 ECD (human)
# Assay: SPR, vs parent H183/L072
# Human CD137 ECD (human), sequence (chain, as listed by the source limits assumed): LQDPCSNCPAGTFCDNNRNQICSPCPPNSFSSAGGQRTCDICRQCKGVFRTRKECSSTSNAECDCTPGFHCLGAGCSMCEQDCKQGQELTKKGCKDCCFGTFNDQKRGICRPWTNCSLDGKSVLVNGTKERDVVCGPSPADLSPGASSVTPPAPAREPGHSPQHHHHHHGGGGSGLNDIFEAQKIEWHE
row,fold change of affinity,Binder
1,0 fold,"dBBDu183H V100cG / dBBDu072L (antibody, name in Kabat numbering, V domains shown) VH: QVQLVESGGGLVQPGRSLRLSCAASGFTFSNAWMHWVRQAPGKGLEWVAQIKDKGNAYAAYYAPSVKGRFTISRDDSKNSIYLQMNSLKTEDTAVYYCHYVHYASASTGLPAFGVDAWGQGTTVTVSS VL: DIVMTQSPLSLPVTPGEPASISCQASQELVHMNRNTYLHWYQQKPGQAPRLLIYKVSNRFPGVPDRFSGSGSGTDFTLKISRVEAEDVGVYYCAQGTSVPFTFGQGTKLEIK"
2,0 fold,"dBBDu183H V100iG / dBBDu072L (antibody, name in Kabat numbering, V domains shown) VH: QVQLVESGGGLVQPGRSLRLSCAASGFTFSNAWMHWVRQAPGKGLEWVAQIKDKGNAYAAYYAPSVKGRFTISRDDSKNSIYLQMNSLKTEDTAVYYCHYVHYASASTVLPAFGGDAWGQGTTVTVSS VL: DIVMTQSPLSLPVTPGEPASISCQASQELVHMNRNTYLHWYQQKPGQAPRLLIYKVSNRFPGVPDRFSGSGSGTDFTLKISRVEAEDVGVYYCAQGTSVPFTFGQGTKLEIK"
3,0 fold,"dBBDu183H V95N / dBBDu072L (antibody, name in Kabat numbering, V domains shown) VH: QVQLVESGGGLVQPGRSLRLSCAASGFTFSNAWMHWVRQAPGKGLEWVAQIKDKGNAYAAYYAPSVKGRFTISRDDSKNSIYLQMNSLKTEDTAVYYCHYNHYASASTVLPAFGVDAWGQGTTVTVSS VL: DIVMTQSPLSLPVTPGEPASISCQASQELVHMNRNTYLHWYQQKPGQAPRLLIYKVSNRFPGVPDRFSGSGSGTDFTLKISRVEAEDVGVYYCAQGTSVPFTFGQGTKLEIK"
4,0 fold,"dBBDu183H Y97N / dBBDu072L (antibody, name in Kabat numbering, V domains shown) VH: QVQLVESGGGLVQPGRSLRLSCAASGFTFSNAWMHWVRQAPGKGLEWVAQIKDKGNAYAAYYAPSVKGRFTISRDDSKNSIYLQMNSLKTEDTAVYYCHYVHNASASTVLPAFGVDAWGQGTTVTVSS VL: DIVMTQSPLSLPVTPGEPASISCQASQELVHMNRNTYLHWYQQKPGQAPRLLIYKVSNRFPGVPDRFSGSGSGTDFTLKISRVEAEDVGVYYCAQGTSVPFTFGQGTKLEIK"

# Further lines, the binder ahead of its results:
row,Binder,fold change of affinity
1,"dBBDu183H F100gG / dBBDu072L (antibody, name in Kabat numbering, V domains shown) VH: QVQLVESGGGLVQPGRSLRLSCAASGFTFSNAWMHWVRQAPGKGLEWVAQIKDKGNAYAAYYAPSVKGRFTISRDDSKNSIYLQMNSLKTEDTAVYYCHYVHYASASTVLPAGGVDAWGQGTTVTVSS VL: DIVMTQSPLSLPVTPGEPASISCQASQELVHMNRNTYLHWYQQKPGQAPRLLIYKVSNRFPGVPDRFSGSGSGTDFTLKISRVEAEDVGVYYCAQGTSVPFTFGQGTKLEIK",0 fold
2,"dBBDu183H H96N / dBBDu072L (antibody, name in Kabat numbering, V domains shown) VH: QVQLVESGGGLVQPGRSLRLSCAASGFTFSNAWMHWVRQAPGKGLEWVAQIKDKGNAYAAYYAPSVKGRFTISRDDSKNSIYLQMNSLKTEDTAVYYCHYVNYASASTVLPAFGVDAWGQGTTVTVSS VL: DIVMTQSPLSLPVTPGEPASISCQASQELVHMNRNTYLHWYQQKPGQAPRLLIYKVSNRFPGVPDRFSGSGSGTDFTLKISRVEAEDVGVYYCAQGTSVPFTFGQGTKLEIK",0 fold
3,"dBBDu183H L100dG / dBBDu072L (antibody, name in Kabat numbering, V domains shown) VH: QVQLVESGGGLVQPGRSLRLSCAASGFTFSNAWMHWVRQAPGKGLEWVAQIKDKGNAYAAYYAPSVKGRFTISRDDSKNSIYLQMNSLKTEDTAVYYCHYVHYASASTVGPAFGVDAWGQGTTVTVSS VL: DIVMTQSPLSLPVTPGEPASISCQASQELVHMNRNTYLHWYQQKPGQAPRLLIYKVSNRFPGVPDRFSGSGSGTDFTLKISRVEAEDVGVYYCAQGTSVPFTFGQGTKLEIK",0 fold
4,"dBBDu183H D101G / dBBDu072L (antibody, name in Kabat numbering, V domains shown) VH: QVQLVESGGGLVQPGRSLRLSCAASGFTFSNAWMHWVRQAPGKGLEWVAQIKDKGNAYAAYYAPSVKGRFTISRDDSKNSIYLQMNSLKTEDTAVYYCHYVHYASASTVLPAFGVGAWGQGTTVTVSS VL: DIVMTQSPLSLPVTPGEPASISCQASQELVHMNRNTYLHWYQQKPGQAPRLLIYKVSNRFPGVPDRFSGSGSGTDFTLKISRVEAEDVGVYYCAQGTSVPFTFGQGTKLEIK",0 fold
